Consider seven molecules from patent publication US20260151499A1 (TSINGHUA UNIVERSITY, published 2026).

Assay [1] has as its target T1, CD73 protein (UniProt P21589 27-549).
T1 construct: also called CD73-biotin
T1 sequence (looked up): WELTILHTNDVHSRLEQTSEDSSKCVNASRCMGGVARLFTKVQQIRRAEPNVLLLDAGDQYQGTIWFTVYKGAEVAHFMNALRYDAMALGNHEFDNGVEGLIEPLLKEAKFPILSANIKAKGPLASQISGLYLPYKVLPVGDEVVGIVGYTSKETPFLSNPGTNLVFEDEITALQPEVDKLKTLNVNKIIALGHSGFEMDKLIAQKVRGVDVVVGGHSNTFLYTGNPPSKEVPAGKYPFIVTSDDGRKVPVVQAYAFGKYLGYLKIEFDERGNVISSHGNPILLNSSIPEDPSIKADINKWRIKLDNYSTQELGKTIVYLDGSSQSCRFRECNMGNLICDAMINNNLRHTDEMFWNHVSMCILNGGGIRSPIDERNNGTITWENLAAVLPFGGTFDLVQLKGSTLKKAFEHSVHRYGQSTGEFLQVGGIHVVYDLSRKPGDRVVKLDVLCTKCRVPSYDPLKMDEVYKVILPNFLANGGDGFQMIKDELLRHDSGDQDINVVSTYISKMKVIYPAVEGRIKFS
Description: Octet BLI; Ab-BN3 on protein A sensors, CD73 in solution. In general terms: BLI is a label-free optical method that tracks binding on a fibre tip over time.

The target in assay [2] is T1, CD73 protein. Description: cell-based or functional assay.
Assay [3] deals with NaV1.2 (UniProt Q99250 1-2005). Description: cell-based or functional assay.
NaV1.2, sequence (Q99250 whole entry): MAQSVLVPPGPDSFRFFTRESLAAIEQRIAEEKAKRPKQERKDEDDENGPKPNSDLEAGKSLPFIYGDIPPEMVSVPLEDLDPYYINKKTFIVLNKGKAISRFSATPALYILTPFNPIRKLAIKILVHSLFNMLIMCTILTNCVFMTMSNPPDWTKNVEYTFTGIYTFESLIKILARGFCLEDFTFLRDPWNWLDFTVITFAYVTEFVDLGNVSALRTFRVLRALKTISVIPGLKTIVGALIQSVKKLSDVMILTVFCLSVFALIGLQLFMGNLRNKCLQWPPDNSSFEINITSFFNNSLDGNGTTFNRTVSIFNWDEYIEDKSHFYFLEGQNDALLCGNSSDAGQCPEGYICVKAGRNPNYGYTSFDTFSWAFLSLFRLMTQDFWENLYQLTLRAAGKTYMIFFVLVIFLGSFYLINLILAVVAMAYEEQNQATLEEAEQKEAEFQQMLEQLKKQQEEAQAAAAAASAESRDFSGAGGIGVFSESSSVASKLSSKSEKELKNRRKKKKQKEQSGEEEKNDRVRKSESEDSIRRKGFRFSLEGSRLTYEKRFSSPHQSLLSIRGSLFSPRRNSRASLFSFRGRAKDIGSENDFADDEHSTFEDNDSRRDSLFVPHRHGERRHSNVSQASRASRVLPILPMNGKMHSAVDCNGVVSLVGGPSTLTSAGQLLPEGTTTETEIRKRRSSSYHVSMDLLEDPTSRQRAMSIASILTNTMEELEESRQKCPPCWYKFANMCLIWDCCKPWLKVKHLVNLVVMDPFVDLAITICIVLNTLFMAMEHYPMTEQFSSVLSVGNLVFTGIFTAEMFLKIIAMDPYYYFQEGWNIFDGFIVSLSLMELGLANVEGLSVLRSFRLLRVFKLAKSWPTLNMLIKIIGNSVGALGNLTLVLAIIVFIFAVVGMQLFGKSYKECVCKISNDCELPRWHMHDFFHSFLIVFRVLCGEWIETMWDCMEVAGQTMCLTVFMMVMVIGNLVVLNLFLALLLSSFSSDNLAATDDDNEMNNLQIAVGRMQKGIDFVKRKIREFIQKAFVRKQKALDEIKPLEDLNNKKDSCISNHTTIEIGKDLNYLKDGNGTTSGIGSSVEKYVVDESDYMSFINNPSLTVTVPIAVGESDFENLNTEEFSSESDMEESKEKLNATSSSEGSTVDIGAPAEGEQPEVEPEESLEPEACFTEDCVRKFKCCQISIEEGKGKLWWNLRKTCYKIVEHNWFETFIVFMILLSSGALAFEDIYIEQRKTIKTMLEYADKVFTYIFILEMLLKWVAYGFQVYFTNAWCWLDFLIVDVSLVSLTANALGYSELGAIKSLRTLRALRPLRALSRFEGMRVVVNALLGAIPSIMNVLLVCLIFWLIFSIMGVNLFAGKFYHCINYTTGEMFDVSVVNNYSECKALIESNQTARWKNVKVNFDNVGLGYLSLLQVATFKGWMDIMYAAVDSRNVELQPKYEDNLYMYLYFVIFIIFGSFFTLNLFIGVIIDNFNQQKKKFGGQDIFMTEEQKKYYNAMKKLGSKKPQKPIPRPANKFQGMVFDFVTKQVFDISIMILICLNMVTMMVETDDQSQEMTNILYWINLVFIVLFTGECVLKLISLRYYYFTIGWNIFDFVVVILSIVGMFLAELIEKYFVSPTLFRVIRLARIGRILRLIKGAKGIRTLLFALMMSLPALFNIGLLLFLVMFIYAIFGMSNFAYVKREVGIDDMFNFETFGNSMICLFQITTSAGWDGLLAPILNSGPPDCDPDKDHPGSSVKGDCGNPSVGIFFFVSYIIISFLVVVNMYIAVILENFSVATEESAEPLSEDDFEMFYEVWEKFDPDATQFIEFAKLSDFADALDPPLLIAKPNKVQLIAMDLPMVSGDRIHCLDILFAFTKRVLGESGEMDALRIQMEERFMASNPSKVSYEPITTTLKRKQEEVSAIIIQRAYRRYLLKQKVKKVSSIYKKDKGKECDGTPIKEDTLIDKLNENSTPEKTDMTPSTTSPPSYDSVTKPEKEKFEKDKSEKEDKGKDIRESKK
Assay [4] has as its target NaV1.7 (UniProt Q15858 1-1988). Description: cell-based or functional assay.
For assay [5], the target named is T1, CD73 protein. Nature of the assay: cell-based or functional assay. This is another data set of the same source.

NaV1.7, sequence (Q15858 whole entry): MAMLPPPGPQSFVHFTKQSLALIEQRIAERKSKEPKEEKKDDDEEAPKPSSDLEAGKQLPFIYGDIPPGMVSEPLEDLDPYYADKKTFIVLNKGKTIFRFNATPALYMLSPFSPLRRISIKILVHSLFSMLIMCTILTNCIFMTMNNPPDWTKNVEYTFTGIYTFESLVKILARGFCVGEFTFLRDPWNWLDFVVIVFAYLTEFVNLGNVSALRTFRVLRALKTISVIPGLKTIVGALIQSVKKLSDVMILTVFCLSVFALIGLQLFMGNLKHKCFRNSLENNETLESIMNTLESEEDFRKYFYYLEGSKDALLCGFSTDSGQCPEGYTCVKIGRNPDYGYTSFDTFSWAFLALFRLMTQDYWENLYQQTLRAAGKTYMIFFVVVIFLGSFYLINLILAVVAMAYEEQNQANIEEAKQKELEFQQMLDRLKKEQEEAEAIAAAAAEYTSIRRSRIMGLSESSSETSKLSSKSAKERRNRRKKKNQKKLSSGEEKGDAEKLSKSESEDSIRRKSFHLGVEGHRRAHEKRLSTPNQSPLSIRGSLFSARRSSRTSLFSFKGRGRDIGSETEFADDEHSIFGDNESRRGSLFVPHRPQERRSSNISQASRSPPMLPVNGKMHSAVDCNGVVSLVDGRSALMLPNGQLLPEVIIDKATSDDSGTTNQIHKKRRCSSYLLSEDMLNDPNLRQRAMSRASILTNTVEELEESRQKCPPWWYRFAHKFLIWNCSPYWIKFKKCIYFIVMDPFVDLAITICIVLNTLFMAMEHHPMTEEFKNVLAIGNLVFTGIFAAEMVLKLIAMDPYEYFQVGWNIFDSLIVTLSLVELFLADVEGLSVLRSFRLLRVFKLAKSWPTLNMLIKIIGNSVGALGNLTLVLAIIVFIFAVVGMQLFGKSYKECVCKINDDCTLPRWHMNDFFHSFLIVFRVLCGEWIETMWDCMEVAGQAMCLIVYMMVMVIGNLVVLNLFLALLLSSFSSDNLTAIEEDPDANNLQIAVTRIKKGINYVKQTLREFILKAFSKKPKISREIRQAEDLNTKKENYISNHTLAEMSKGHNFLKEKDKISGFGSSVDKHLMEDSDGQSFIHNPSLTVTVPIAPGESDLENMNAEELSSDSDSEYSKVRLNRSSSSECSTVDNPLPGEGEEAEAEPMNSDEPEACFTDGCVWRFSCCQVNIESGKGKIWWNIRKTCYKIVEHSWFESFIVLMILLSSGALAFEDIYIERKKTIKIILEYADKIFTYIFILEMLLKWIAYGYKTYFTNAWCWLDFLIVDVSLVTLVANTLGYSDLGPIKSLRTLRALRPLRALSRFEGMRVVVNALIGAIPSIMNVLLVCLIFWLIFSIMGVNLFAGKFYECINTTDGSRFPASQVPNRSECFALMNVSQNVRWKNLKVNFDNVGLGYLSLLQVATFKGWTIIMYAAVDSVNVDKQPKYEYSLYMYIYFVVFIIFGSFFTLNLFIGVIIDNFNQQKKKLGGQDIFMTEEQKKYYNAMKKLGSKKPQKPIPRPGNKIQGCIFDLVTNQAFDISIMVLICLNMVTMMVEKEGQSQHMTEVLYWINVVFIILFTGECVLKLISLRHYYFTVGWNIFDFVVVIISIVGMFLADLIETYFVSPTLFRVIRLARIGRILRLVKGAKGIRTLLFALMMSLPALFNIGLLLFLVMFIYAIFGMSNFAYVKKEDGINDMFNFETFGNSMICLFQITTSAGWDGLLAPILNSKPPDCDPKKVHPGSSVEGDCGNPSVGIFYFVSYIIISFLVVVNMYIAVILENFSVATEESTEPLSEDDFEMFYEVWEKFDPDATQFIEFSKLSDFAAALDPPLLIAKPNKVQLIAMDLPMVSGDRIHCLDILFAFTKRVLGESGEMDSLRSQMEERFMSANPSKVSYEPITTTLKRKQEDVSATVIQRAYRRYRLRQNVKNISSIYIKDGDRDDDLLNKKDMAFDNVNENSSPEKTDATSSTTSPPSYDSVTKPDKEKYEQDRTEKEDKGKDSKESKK

B1: ABN3-2G-BN3 (antibody, V domains shown)
VH: EVQLVESGGGLVQPGGSLRLSCAASGITFGSYTMSWVRQAPGKGLEWIGTVHYTGKTFYSPSLKSRVTISADTSKNTAYLQMNSLRAEDTAVYYCARGRDFGEPPYVRAFDIWGQGTLVTVSS
VL: DIQMTQSPSSLSASVGDRVTITCQASHDISKYLNWYQQKPGKAPKLLIYDASNLETGVPSRFSGSRSGTDFTLTISSLQPEDFATYYCQQXYTTPPTFGQGTKLEI
modifications: not fully specified; position marked * in QQ*YTTPPT (light chain residue 91): unnatural amino acid (UAA) with azide, conjugated to BN3 (PSB12379-PEG3-DBCO)
notes: also called ABN3-2G Ab-BN3
By Kd is commonly meant the equilibrium constant for the complex coming apart. Read a high Kd as a looser complex. Usually koff stands for the rate constant with which the complex falls apart. Low values mean slow dissociation, high ones fast dissociation. Broadly, the kon is the second-order rate constant of association. High values mean faster complex formation, low ones slower complex formation. Take B1: in assay [1], binding was put at a Kd of 0.887 nM, the koff stood at 0.000271 s⁻¹ and the kon amounted to 305000 M⁻¹ s⁻¹. Besides, the “IC90 of inhibition of CD73 (malachite green phosphate assay)” value (“IC90 of inhibition of CD73” below) in assay [2] worked out at 25.9 nM.

B2: 10A7-BN3 (antibody, V domains shown)
VH: EVQLVESGGGLVQPGGSLRLSCAASGFAFSSYSMSWVRQAPGKGLEWIGSIYYSGSTYYNPSLKSRVTISADTSKNTAYLQMNSLRAEDTAVYYCARNSGFETLDYWGQGTLVTVSS
VL: DIQMTQSPSSLSASVGDRVTITCRASQGISRWLAWYQQKPGKAPNLLIYGASTLQSGVPPRFSGSRSGTDFTLTISSLQPEDFATYYCQQXYTTPPTFGQGTKLEI
modifications: position marked * in QQ*YTTPPT (light chain residue 91): unnatural amino acid (UAA) with azide, conjugated to BN3 (PSB12379-PEG3-DBCO)
notes: also called 10A7 Ab-BN3
As for B2, in assay [1], the dissociation constant Kd is 0.888 nM, the koff is 0.000191 s⁻¹ and the on-rate (kon) came to 215000 M⁻¹ s⁻¹. For the same molecule, the “IC90 of inhibition of CD73” value in assay [2] came out at 2.92 nM.

B3: 14H4-PEG3-ASF (antibody, V domains shown)
VH: EVQLVESGGGLVQPGGSLRLSCAASGFSFSKFWMHWVRQAPGKGLEWVAFMAHDESNKNYADSVKGRFTISADTSKNTAYLQMNSLRAEDTAVYYCARDKVCNTFDIWGQGTLVTVSS
VL: DIQMTQSPSSLSASVGDRVTITCRASQSISSDLNWYQQKPGKAPKLLIYRATFLESGVPSRFSGSRSGTDFTLTISSLQPEDFATYYCQQXYTTPPTFGQGTKLEI
modifications: position marked * in QQ*YTTPPT (light chain residue 91): unnatural amino acid (UAA) with azide, conjugated to ASF-PEG3-DBCO
With B3, the “IC50 on HEK293-NaV1.2 cells” value in assay [3] turned out to be 2.73 nM. Besides, the “IC50 on HEK293-NaV1.7 cells, by curve fitting” value in assay [4] is over 500 nM.

B4: 14E6-PEG3-ASF (antibody, V domains shown)
VH: EVQLVESGGGLVQPGGSLRLSCAASGFTFSNFAMHWVRQAPGKGLEYVSAISGGNGGGTYYADSAKGRFTISADTSKNTAYLQMNSLRAEDTAVYYCAREGNYCLDYWGQGTLVTVSS
VL: DIQMTQSPSSLSASVGDRVTITCRASQPISDWLAWYQQKPGKAPKSLIYDAYNLQSGVPPRFSGSRSGTDFTLTISSLQPEDFATYYCQQXYTTPPTFGQGTKLEI
modifications: position marked * in QQ*YTTPPT (light chain residue 91): unnatural amino acid (UAA) with azide, conjugated to ASF-PEG3-DBCO
For B4, the “IC50 on HEK293-NaV1.2 cells” value in assay [3] was 5.02 nM.

B5: ABN3-2B-BN3 (antibody, V domains shown)
VH: EVQLVESGGGLVQPGGSLRLSCAASGFTFSSYWMHWVRQAPGKGLEWVSAVSGSGDSTYYADSVKGRFTISADTSKNTAYLQMNSLRAEDTAVYYCAREGDWGLDYWGQGTLVTVSS
VL: DIQMTQSPSSLSASVGDRVTITCRASQGINNYLAWYQQKPGKAPKLLIYDASNLETGVPSRFSGSRSGTDFTLTISSLQPEDFATYYCQQXYTTPPTFGQGTKLEI
modifications: not fully specified; position marked * in QQ*YTTPPT (light chain residue 91): unnatural amino acid (UAA) with azide, conjugated to BN3 (PSB12379-PEG3-DBCO)
notes: also called ABN3-2B Ab-BN3; ABN-2B
For B5, in assay [1], the Kd came to 3.16 nM, the koff is 0.000582 s⁻¹ and the association rate constant (kon) was 185000 M⁻¹ s⁻¹.

B6: 10D8-BN3 (antibody, V domains shown)
VH: EVQLVESGGGLVQPGGSLRLSCAASGFTFSTYAIHWVRQAPGKGLEWVSSISGSGGGGGTYYADSVKGRFTISADTSKNTAYLQMNSLRAEDTAVYYCARDRGFLQFDYWGQGTLVTVSS
VL: DIQMTQSPSSLSASVGDRVTITCRASQSISSWLAWYQQKPGKAPKLLIYDVSNVQTGVPSRFSGSRSGTDFTLTISSLQPEDFATYYCQQXYTTPPTFGQGTKLEI
modifications: position marked * in QQ*YTTPPT (light chain residue 91): unnatural amino acid (UAA) with azide, conjugated to BN3 (PSB12379-PEG3-DBCO)
notes: also called 10D8 Ab-BN3
Consider B6, for which, in assay [1], binding was put at a Kd of 1.35 nM, the off-rate (koff) was determined as 0.000275 s⁻¹ and the kon is 204000 M⁻¹ s⁻¹. Besides, the “IC90 of inhibition of CD73” value in assay [2] was over 100 nM.

B7: 10A7-Fab-BN3 (Fab, V domains shown)
VH: EVQLVESGGGLVQPGGSLRLSCAASGFAFSSYSMSWVRQAPGKGLEWIGSIYYSGSTYYNPSLKSRVTISADTSKNTAYLQMNSLRAEDTAVYYCARNSGFETLDYWGQGTLVTVSS
VL: DIQMTQSPSSLSASVGDRVTITCRASQGISRWLAWYQQKPGKAPNLLIYGASTLQSGVPPRFSGSRSGTDFTLTISSLQPEDFATYYCQQXYTTPPTFGQGTKLEI
modifications: position marked * in QQ*YTTPPT (light chain residue 91): unnatural amino acid (UAA) with azide, conjugated to BN3 (PSB12379-PEG3-DBCO)
Consider B7, for which the “IC50 of inhibition of CD73, against that of 10A7-BN3” value in assay [5] is ~0.2 fold of the IC50 of 10A7-BN3.
